Patent US10124035B2, “DISC-1 pathway activators in the control of neurogenesis” (Massachusetts Institute of Technology, priority 2008, dated 2018)
Entries after “also recorded” stand apart in the source; their conditions may differ. One block for each molecule: values may come before it.

Experiments:
[1] = target: T1, GSK3β (Homo sapiens, UniProt P49841); assay: GSK3β in vitro kinase assay (β-catenin/axin phosphorylation, Y216 autophosphorylation); format: biochemical; settings: for inhibition of GSK3β activity by DISC1 fragments: no single concentration, dose dependence, rank
T1 construct: GST; purchased Active Motif (Carlsbad, Calif.)
T1 sequence (P49841 whole entry, the tested form may be a part): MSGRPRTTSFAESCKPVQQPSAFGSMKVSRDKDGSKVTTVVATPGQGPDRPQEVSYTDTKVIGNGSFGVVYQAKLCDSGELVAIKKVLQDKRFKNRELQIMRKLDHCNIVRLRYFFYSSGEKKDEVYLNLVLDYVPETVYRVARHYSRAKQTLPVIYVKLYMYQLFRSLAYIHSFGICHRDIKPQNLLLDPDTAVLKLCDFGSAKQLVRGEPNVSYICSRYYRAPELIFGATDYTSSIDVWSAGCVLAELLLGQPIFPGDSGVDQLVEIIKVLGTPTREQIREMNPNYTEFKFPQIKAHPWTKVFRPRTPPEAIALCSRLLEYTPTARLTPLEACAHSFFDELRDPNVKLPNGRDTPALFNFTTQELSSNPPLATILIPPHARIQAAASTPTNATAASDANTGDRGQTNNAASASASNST
From the text: • Mice. Swiss Webster pregnant female mice were purchased from Taconic (Hudson, N.Y.). • Cell Culture. AHPs were kindly provided by Dr. Gage (Lie, D. C. et al. Wnt signaling to regulates adult hippocampal neurogenesis. Nature 437, 1370-5 (2005)) and cultured under conditions described previously (Palmer, T. D., Takahashi, J. & Gage, F. H. The adult rat hippocampus contains primordial neural stem cells. Mol Cell Neurosci 8, 389-404 (1997)). Primary neural progenitors were isolated from E14 mouse embryos and cultured as described previously (Sanada, K. & Tsai, L. H. G protein betagamma subunits and AGS3 control spindle orientation and asymmetric cell fate of cerebral cortical progenitors. Cell 122, 119-31 (2005)). N2a and 293T cells were cultured in DMEM medium containing 10% FBS, L-glutamine, and penicillin/streptomycin. Wnt3a expressing L cells and untransfected L cells were obtained from ATCC (Manassas, Va.). Wnt3a conditional medium was produced according to the ATCC protocol. To induce AHP differentiation, FGF2 was removed from the culture medium and 1 μM retinoic acid/1% FBS was added to the medium for 4 days. • Reagents. Recombinant Wnt3a protein was obtained from Chemicon (Rosemont, Ill.). FGF2 was obtained from PeproTech (Rocky Hill, N.J.). Recombinant GST-GSK3β was obtained from Active Motif (Carlsbad, Calif.). Recombinant GST-β-catenin and GST-axin were obtained from Millipore (Billerica, Mass.). The GSK313 inhibitor, SB-216763, AR-A104418 and His-GSK3β, were obtained from Sigma-Aldrich (Sigma-Aldrich, St. Louis, Mo.). L803-MTS was obtained from Calbiochem (San Diego, Calif.). GST-AKT1 was obtained from Cell Signaling (Beverly, Mass.). GST-CASK-1 (CASK fragment from 316-415aa), GST-CASK-2 (CASK fragment from 777-974aa), and GST-p25 proteins were kindly provided by Dr. B. A. Samuels. Mouse DISC1 peptidel (40-78aa: GYMRSTAGSG IGFLSPAVGMPHPSSAG LTGQQSQHSQS; SEQ ID NO: 1) and Mouse DISC1 peptide 2 (195-238aa, […] GERGEAEGCLPSREAE; SEQ ID NO: 2) were synthesized by Chi Scientific (Maynard, Mass.). • Antibodies. The primary antibodies used in this study were the following: rabbit anti-DISC1 C-terminal antibody, mouse and rabbit anti-GFP antibodies (Invitrogen, Carlsbad, Calif.); affinity purified rabbit anti-DISC1 antibody (Novus, Littleton, Colo.) for immunohistochemistry; mouse anti-FLAG and mouse anti-Actin antibody; mouse anti-GSK3β antibody, mouse anti-β-catenin antibody, mouse anti-pY216 GSK3β antibody, and mouse anti-nestin antibody (BD Biosciences, San Diego, Calif.); rabbit anti-[…] β-catenin antibody, rabbit anti-pS9 GSK3β antibody, and mouse anti-cyclin to D1 antibody (Cell Signaling); mouse anti-Dv12 antibody, mouse anti-HA antibody, mouse anti-GST antibody, mouse anti-ubiquitin antibody, and rabbit anti-β-catenin antibody (Santa Cruz, Santa Cruz, Calif.); mouse Tuj-1 antibody (BABCO, Harrisburg, Pa.); mouse anti-BrdU antibody (DakoCytomation, Glostrup, Denmark); guinea pig anti-doublecortin antibody (Chemicon, Rosemont, Ill.); chicken anti-GFP antibody (Ayes Labs, Tigard, Oreg.); rabbit anti-pS10 Histone H3 antibody (Upstate, Lake Placid, N.Y.). • Constructs. The sequences for shRNAs targeting DISC1 are as follows: control shRNA: 5′-CGGCTGAAACAAGAGTTGG-3′ (SEQ ID NO:3); DISC1 shRNA-1: 5′-GGCAAACACTGTGA AGT GC-3′ (SEQ ID NO:4); DISC1 shRNA-2: 5′-[…]-3′ (SEQ ID NO:5)(Kamiya A. et al. A schizophrenia-associated mutation of DISC1 perturbs cerebral cortex development. Nat. Cell Biol 7, 1167-78 (2005)). DISC1 shRNA-1 recognizes both rat and mouse DISC1. […]

[2] = target: T2, His-GSK3β (Homo sapiens, UniProt P49841); assay: In vitro association (GST pull-down) with purified His-GSK3β; format: binding; settings: GST-tagged DISC1 fragments, in vitro association assay
T2 construct: purchased Sigma-Aldrich (St. Louis, Mo.)
T2 sequence (P49841 whole entry, the tested form may be a part): as above
From the text: (§1) • Mice. Swiss Webster pregnant female mice were purchased from Taconic (Hudson, N.Y.). • Cell Culture. AHPs were kindly provided by Dr. Gage (Lie, D. C. et al. Wnt signaling to regulates adult hippocampal neurogenesis. Nature 437, 1370-5 (2005)) and cultured under conditions described previously (Palmer, T. D., Takahashi, J. & Gage, F. H. The adult rat hippocampus contains primordial neural stem cells. Mol Cell Neurosci 8, 389-404 (1997)). Primary neural progenitors were isolated from E14 mouse embryos and cultured as described previously (Sanada, K. & Tsai, L. H. G protein betagamma subunits and AGS3 control spindle orientation and asymmetric cell fate of cerebral cortical progenitors. Cell 122, 119-31 (2005)). N2a and 293T cells were cultured in DMEM medium containing 10% FBS, L-glutamine, and penicillin/streptomycin. Wnt3a expressing L cells and untransfected L cells were obtained from ATCC (Manassas, Va.). Wnt3a conditional medium was produced according to the ATCC protocol. To induce AHP differentiation, FGF2 was removed from the culture medium and 1 μM retinoic acid/1% FBS was added to the medium for 4 days. • Reagents. Recombinant Wnt3a protein was obtained from Chemicon (Rosemont, Ill.). FGF2 was obtained from PeproTech (Rocky Hill, N.J.). Recombinant GST-GSK3β was obtained from Active Motif (Carlsbad, Calif.). […]

[3] = test system: adult hippocampal progenitor (AHP) cells; assay: AHP cell proliferation, BrdU labeling and mitotic index; format: cell-based; settings: Wnt3a 200 ng/ml
From the text: as §1

- inhibition of GSK3β activity by DISC1 fragments [1]: able to inhibit GSK3 activity
B1: DISC1 fragment 356-595: GST-tagged mouse DISC1 protein fragment, amino acids 356-595 (protein, UniProt Q811T9 356-595, looked up, fragment)
chain: LKLQKCQEKVVEDGDYDTAETLRQRLEELEQEKGRLSWALPSQQPALRSFLGYLAAQIQVALHGATQRAGSDDPEAPLEGQLRTTAQDSLPASITRRDWLIREKQRLQKEIEALQARMSALEAKEKRLSQELEEQEVLLRWPGCDLMALVAQMSPGQLQEVSKALGETLTSANQAPFQVEPPETLRSLRERTKSLNLAVRELTAQVCSGEKLCSSLRRRLSDLDTRLPALLEAKMLALSG
modifications: GST tag
- inhibition of GSK3β autophosphorylation (Y216) ([1]; GST-DISC1 fragments at 2 μM): started to inhibit GSK3β autophosphorylation
- interaction with purified His-GSK3β [2]: strong interactions; also recorded: directly associate with purified GSK3β; also recorded: interacts directly

- inhibition of GSK3β Y216 phosphorylation ([1]; at 0.1 μM): no inhibition
- inhibition of GSK3β Y216 phosphorylation ([1]; at 1 μM): plateaued
B2: DISC1 fragment 1-220: GST-tagged mouse DISC1 protein fragment, amino acids 1-220 (protein)
chain: MQGGGPRGAPIHSPSHGADSGHGLPPAVAPQRRRLTRRPGYMRSTAGSGIGFLSPAVGMPHPSSAGLTGQQSQHSQSKAGQCGLDPGSHCQASLVGKPFLKSSLVPAVASEGHLHPAQRSMRKRPVHFAVHSKNDSRQSERLTGSFKPGDSGFWQELLSSDSFKSLAPSLDAPWNKGSRGLKTVKPLASPALNGPADIASLPGFQDTFTSSFSFIQLSLG
modifications: left off: a dimerising Fc or GST
- inhibition of β-catenin, axin and GSK3β phosphorylation ([1]; GST fusion proteins at 0.5 μM): potently inhibited β-catenin, axin and GSK3β phosphorylation
- inhibition of GSK3β activity by DISC1 fragments [1]: able to inhibit GSK3 activity; also recorded: most potent in inhibiting GSK3 activity; also recorded: most potent inhibitory activity on GSK3β; also recorded: dose-dependent
- interaction with purified His-GSK3β [2]: strong interactions; also recorded: directly associate with purified GSK3β; also recorded: interacts directly

B3: Wnt3a: Recombinant Wnt3a protein obtained from Chemicon (protein, UniProt P56704 19-352, looked up)
Protein Wnt-3a: SYPIWWSLAVGPQYSSLGSQPILCASIPGLVPKQLRFCRNYVEIMPSVAEGIKIGIQECQHQFRGRRWNCTTVHDSLAIFGPVLDKATRESAFVHAIASAGVAFAVTRSCAEGTAAICGCSSRHQGSPGKGWKWGGCSEDIEFGGMVSREFADARENRPDARSAMNRHNNEAGRQAIASHMHLKCKCHGLSGSCEVKTCWWSQPDFRAIGDFLKDKYDSASEMVVEKHRESRGWVETLRPRYTYFKVPTERDLVYYEASPNFCEPNPETGSFGTRDRTCNVSSHGIDGCDLLCCGRGHNARAERRREKCRCVFHWCCYVSCQECTRVYDVHTCK
- proliferation of AHPs [3]: significantly stimulated proliferation of AHPs
